This passage reports Kd results from publication PMC10786891, “Massively parallel profiling of RNA-targeting CRISPR-Cas13d”.

The labels stand for the following.
T1: EsCas13d, nuclease-dead (Eubacterium siraeum, UniProt B0MS50, R295A;H300A;R849A;H854A)
T1 sequence: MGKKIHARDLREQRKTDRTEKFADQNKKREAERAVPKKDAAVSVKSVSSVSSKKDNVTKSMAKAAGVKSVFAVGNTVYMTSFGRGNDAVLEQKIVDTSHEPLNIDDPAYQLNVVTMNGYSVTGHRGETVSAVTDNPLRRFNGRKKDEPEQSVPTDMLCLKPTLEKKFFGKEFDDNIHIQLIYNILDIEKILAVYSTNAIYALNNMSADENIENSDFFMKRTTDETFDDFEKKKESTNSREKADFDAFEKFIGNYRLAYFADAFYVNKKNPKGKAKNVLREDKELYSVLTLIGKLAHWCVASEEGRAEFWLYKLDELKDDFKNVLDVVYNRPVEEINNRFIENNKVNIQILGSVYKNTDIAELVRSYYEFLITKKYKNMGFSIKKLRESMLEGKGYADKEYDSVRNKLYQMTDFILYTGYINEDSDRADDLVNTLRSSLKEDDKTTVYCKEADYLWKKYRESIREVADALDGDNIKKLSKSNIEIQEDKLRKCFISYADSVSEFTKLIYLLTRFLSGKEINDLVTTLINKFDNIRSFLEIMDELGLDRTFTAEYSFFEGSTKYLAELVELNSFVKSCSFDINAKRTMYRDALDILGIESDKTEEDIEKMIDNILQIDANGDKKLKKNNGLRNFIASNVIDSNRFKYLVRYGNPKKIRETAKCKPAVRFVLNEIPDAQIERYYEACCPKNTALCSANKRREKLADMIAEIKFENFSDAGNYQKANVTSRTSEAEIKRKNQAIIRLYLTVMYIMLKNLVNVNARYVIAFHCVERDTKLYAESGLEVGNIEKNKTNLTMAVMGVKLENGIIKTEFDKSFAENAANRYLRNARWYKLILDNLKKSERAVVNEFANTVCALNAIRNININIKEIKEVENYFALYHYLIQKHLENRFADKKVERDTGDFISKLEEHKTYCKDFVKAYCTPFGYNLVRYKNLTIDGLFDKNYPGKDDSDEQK

B1: target 1 insA 3' of 7,insU 3' of 7 (mixed)
RNA 1: CACCCGUGCAAAAAUGCAGGGGUCUAAAACUGAGCGGAUAACCUCUCUAUGG
RNA 2: GGGAAUGGAUCCACAUCUACGAAUUCGUACCAUAGAGAGGUUAUCAUCGCUCACCGAGAUCGGAAGAGCACACGU
B2: target 1 C4U,A14G (mixed)
RNA 1: CACCCGUGCAAAAAUGCAGGGGUCUAAAACUGAGCGGAUAACCUCUCUAUGG
RNA 2: GGGAAUGGAUCCACAUCUACGAAUUCGUACCAUAGAGGGGUUAUCCGUUCACCGAGAUCGGAAGAGCACACGU
B3: target 1 A1C,U10G (mixed)
RNA 1: CACCCGUGCAAAAAUGCAGGGGUCUAAAACUGAGCGGAUAACCUCUCUAUGG
RNA 2: GGGAAUGGAUCCACAUCUACGAAUUCGUACCAUAGAGAGGUGAUCCGCUCCCCGAGAUCGGAAGAGCACACGU
B4: target 1 insG 3' of 7,insG 3' of 6 (mixed)
RNA 1: CACCCGUGCAAAAAUGCAGGGGUCUAAAACUGAGCGGAUAACCUCUCUAUGG
RNA 2: GGGAAUGGAUCCACAUCUACGAAUUCGUACCAUAGAGAGGUUAUCGCGGCUCACCGAGAUCGGAAGAGCACACGU
B5: target 1 insA 3' of 17,insG 3' of 2 (mixed)
RNA 1: CACCCGUGCAAAAAUGCAGGGGUCUAAAACUGAGCGGAUAACCUCUCUAUGG
RNA 2: GGGAAUGGAUCCACAUCUACGAAUUCGUACCAUAGAAGAGGUUAUCCGCUCGACCGAGAUCGGAAGAGCACACGU
B6: target 1 insU 3' of 12,insU 3' of 4 (mixed)
RNA 1: CACCCGUGCAAAAAUGCAGGGGUCUAAAACUGAGCGGAUAACCUCUCUAUGG
RNA 2: GGGAAUGGAUCCACAUCUACGAAUUCGUACCAUAGAGAGGUUUAUCCGCUUCACCGAGAUCGGAAGAGCACACGU
B7: target 1 insU 3' of 15,insU 3' of 5 (mixed)
RNA 1: CACCCGUGCAAAAAUGCAGGGGUCUAAAACUGAGCGGAUAACCUCUCUAUGG
RNA 2: GGGAAUGGAUCCACAUCUACGAAUUCGUACCAUAGAGUAGGUUAUCCGUCUCACCGAGAUCGGAAGAGCACACGU
B8: target 1 U3A,G17U (mixed)
RNA 1: CACCCGUGCAAAAAUGCAGGGGUCUAAAACUGAGCGGAUAACCUCUCUAUGG
RNA 2: GGGAAUGGAUCCACAUCUACGAAUUCGUACCAUAUAGAGGUUAUCCGCACACCGAGAUCGGAAGAGCACACGU
B9: target 1 complement block 5-8 (mixed)
RNA 1: CACCCGUGCAAAAAUGCAGGGGUCUAAAACUGAGCGGAUAACCUCUCUAUGG
RNA 2: GGGAAUGGAUCCACAUCUACGAAUUCGUACCAUAGAGAGGUUAAGGCCUCACCGAGAUCGGAAGAGCACACGU
B10: target 1 del18 (mixed)
RNA 1: CACCCGUGCAAAAAUGCAGGGGUCUAAAACUGAGCGGAUAACCUCUCUAUGG
RNA 2: GGGAAUGGAUCCACAUCUACGAAUUCGUACCAUGAGAGGUUAUCCGCUCACCGAGAUCGGAAGAGCACACGU
B11: target 1 G12A,G17U (mixed)
RNA 1: CACCCGUGCAAAAAUGCAGGGGUCUAAAACUGAGCGGAUAACCUCUCUAUGG
RNA 2: GGGAAUGGAUCCACAUCUACGAAUUCGUACCAUAUAGAGAUUAUCCGCUCACCGAGAUCGGAAGAGCACACGU
B12: target 1 A1U,U19G (mixed)
RNA 1: CACCCGUGCAAAAAUGCAGGGGUCUAAAACUGAGCGGAUAACCUCUCUAUGG
RNA 2: GGGAAUGGAUCCACAUCUACGAAUUCGUACCAGAGAGAGGUUAUCCGCUCUCCGAGAUCGGAAGAGCACACGU
B13: target 1 U10G (mixed)
RNA 1: CACCCGUGCAAAAAUGCAGGGGUCUAAAACUGAGCGGAUAACCUCUCUAUGG
RNA 2: GGGAAUGGAUCCACAUCUACGAAUUCGUACCAUAGAGAGGUGAUCCGCUCACCGAGAUCGGAAGAGCACACGU
B14: target 1 A14G,A16G (mixed)
RNA 1: CACCCGUGCAAAAAUGCAGGGGUCUAAAACUGAGCGGAUAACCUCUCUAUGG
RNA 2: GGGAAUGGAUCCACAUCUACGAAUUCGUACCAUAGGGGGGUUAUCCGCUCACCGAGAUCGGAAGAGCACACGU
B15: target 1 U3C,C6G (mixed)
RNA 1: CACCCGUGCAAAAAUGCAGGGGUCUAAAACUGAGCGGAUAACCUCUCUAUGG
RNA 2: GGGAAUGGAUCCACAUCUACGAAUUCGUACCAUAGAGAGGUUAUCGGCCCACCGAGAUCGGAAGAGCACACGU
B16: target 1 insC 3' of 20,insG 3' of 3 (mixed)
RNA 1: CACCCGUGCAAAAAUGCAGGGGUCUAAAACUGAGCGGAUAACCUCUCUAUGG
RNA 2: GGGAAUGGAUCCACAUCUACGAAUUCGUACCACUAGAGAGGUUAUCCGCUGCACCGAGAUCGGAAGAGCACACGU
B17: target 1 insU 3' of 17,insC 3' of 8 (mixed)
RNA 1: CACCCGUGCAAAAAUGCAGGGGUCUAAAACUGAGCGGAUAACCUCUCUAUGG
RNA 2: GGGAAUGGAUCCACAUCUACGAAUUCGUACCAUAGUAGAGGUUAUCCCGCUCACCGAGAUCGGAAGAGCACACGU
B18: target 1 U10A,G15U (mixed)
RNA 1: CACCCGUGCAAAAAUGCAGGGGUCUAAAACUGAGCGGAUAACCUCUCUAUGG
RNA 2: GGGAAUGGAUCCACAUCUACGAAUUCGUACCAUAGAUAGGUAAUCCGCUCACCGAGAUCGGAAGAGCACACGU
B19: target 1 insC 3' of 20,insA 3' of 12 (mixed)
RNA 1: CACCCGUGCAAAAAUGCAGGGGUCUAAAACUGAGCGGAUAACCUCUCUAUGG
RNA 2: GGGAAUGGAUCCACAUCUACGAAUUCGUACCACUAGAGAGGAUUAUCCGCUCACCGAGAUCGGAAGAGCACACGU
B20: target 1 insC 3' of 20,insA 3' of 13 (mixed)
RNA 1: CACCCGUGCAAAAAUGCAGGGGUCUAAAACUGAGCGGAUAACCUCUCUAUGG
RNA 2: GGGAAUGGAUCCACAUCUACGAAUUCGUACCACUAGAGAGAGUUAUCCGCUCACCGAGAUCGGAAGAGCACACGU
B21: target 1 A1G,U10G (mixed)
RNA 1: CACCCGUGCAAAAAUGCAGGGGUCUAAAACUGAGCGGAUAACCUCUCUAUGG
RNA 2: GGGAAUGGAUCCACAUCUACGAAUUCGUACCAUAGAGAGGUGAUCCGCUCGCCGAGAUCGGAAGAGCACACGU
B22: target 1 A9U,A14G (mixed)
RNA 1: CACCCGUGCAAAAAUGCAGGGGUCUAAAACUGAGCGGAUAACCUCUCUAUGG
RNA 2: GGGAAUGGAUCCACAUCUACGAAUUCGUACCAUAGAGGGGUUUUCCGCUCACCGAGAUCGGAAGAGCACACGU
B23: target 1 insA 3' of 13,insA 3' of 3 (mixed)
RNA 1: CACCCGUGCAAAAAUGCAGGGGUCUAAAACUGAGCGGAUAACCUCUCUAUGG
RNA 2: GGGAAUGGAUCCACAUCUACGAAUUCGUACCAUAGAGAGAGUUAUCCGCUACACCGAGAUCGGAAGAGCACACGU
B24: target 1 insU 3' of 15,insC 3' of 5 (mixed)
RNA 1: CACCCGUGCAAAAAUGCAGGGGUCUAAAACUGAGCGGAUAACCUCUCUAUGG
RNA 2: GGGAAUGGAUCCACAUCUACGAAUUCGUACCAUAGAGUAGGUUAUCCGCCUCACCGAGAUCGGAAGAGCACACGU
B25: target 1 U11C,A14G (mixed)
RNA 1: CACCCGUGCAAAAAUGCAGGGGUCUAAAACUGAGCGGAUAACCUCUCUAUGG
RNA 2: GGGAAUGGAUCCACAUCUACGAAUUCGUACCAUAGAGGGGCUAUCCGCUCACCGAGAUCGGAAGAGCACACGU
B26: target 1 insA 3' of 11,insC 3' of 3 (mixed)
RNA 1: CACCCGUGCAAAAAUGCAGGGGUCUAAAACUGAGCGGAUAACCUCUCUAUGG
RNA 2: GGGAAUGGAUCCACAUCUACGAAUUCGUACCAUAGAGAGGUAUAUCCGCUCCACCGAGAUCGGAAGAGCACACGU
B27: target 1 insA 3' of 22,insU 3' of 15 (mixed)
RNA 1: CACCCGUGCAAAAAUGCAGGGGUCUAAAACUGAGCGGAUAACCUCUCUAUGG
RNA 2: GGGAAUGGAUCCACAUCUACGAAUUCGUACACAUAGAGUAGGUUAUCCGCUCACCGAGAUCGGAAGAGCACACGU

The target of this data set is T1, EsCas13d, nuclease-dead. Nature of the data set: crRNA (strand 1, pre-loaded); Mg2+; 40 mM Tris-HCl pH 7.5, 150 mM NaCl, 6 mM MgCl2, 1 mM DTT, 0.1% Tween-20, 0.2 mg/ml BSA; 25 C; 10 min per concentration, then washed. Particulars: tags: His6-TwinStrep-SUMO cleaved; N-terminal SNAP kept (SNAP-Surface 488); label: 3' end held by stalled T7 RNA polymerase.
Take B1: binding was put at a Kd of 6.31 ± 0.23 nM.
As to B2, the dissociation constant Kd (in general, the equilibrium constant for the complex coming apart) was around 60 nM.
The result for B3 reads 26 ± 5 nM; that for B4, 8.54 ± 0.3 nM; that for B5, 17.3 ± 2.5 nM.
B6 came in with a Kd of 5.68 ± 0.27 nM.
Consider B7, for which binding was characterised by a dissociation constant (Kd) of 35 ± 5 nM.
The figure for B8 is 25 ± 4 nM; for B9 it is 14.7 ± 0.8 nM.
The figure for B10 is 42 ± 8 nM; for B11 it is 18.9 ± 1.4 nM; for B12 it is 63 ± 12 nM.
The figure for B13 is 19.9 ± 1.1 nM.
For B14, the affinity, expressed as Kd, was 34.8 ± 2.2 nM.
The figure for B15 is 12.1 ± 0.7 nM; for B16 it is 8.3 ± 0.5 nM.
Take B17: the Kd amounted to 44 ± 8 nM.
The result for B18 reads 56 ± 13 nM; that for B19, 9 ± 0.5 nM.
In turn, B20 yielded a Kd of 4.7 ± 0.4 nM. This Kd lies about 1.9-fold lower than the previous one.
B21 returned a dissociation constant Kd of 21.1 ± 1.1 nM.
Consider B22, for which the Kd was 17.7 ± 1.2 nM. The Kd values of the last two molecules are within 1.5-fold of each other.
The result for B23 reads 3.99 ± 0.33 nM; that for B24, 16.9 ± 2.2 nM.
The result for B25 reads 13.4 ± 0.6 nM; that for B26, 13.8 ± 0.6 nM; that for B27, 19 ± 1.8 nM.
